Patent US6458927B1, “Polypeptide with appetite regulating activity” (Novo Nordisk A/S, priority 1997, dated 2002)

Test system: Mice
Assay: Test method for measuring appetite suppression in mice (milk consumption after ICV injection)
Assay type: in vivo
Conditions: for % Feeding Suppression: food deprived, milk consumption over 10 minutes, 30 min after injection, percent reduction relative to control mean
Experimental: Mice were deprived of their normal feed for two days and given free access to a solution of nutritionally complete infant formula milk (Complan®) for the first day, after which food deprivation was complete for the last day before testing. After one day of food deprivation, mice were injected intra-cerebroventricularly (ICV) in the lateral ventricle with 10 microliters of a solution containing the test substance. Thirty minutes after injection, mice were individually placed in a 15×15×15 cm test box with a stainless steel grid floor and a glass drinking tube which projected into the box. The drinking tube was connected to a reservoir containing the formula milk solution, and the interior of the drinking tube contained an electrode enabling the detection of drinking contacts with the solution by measuring the flow of a weak (unnoticeable) electric current through mice by means of an electronic apparatus connected to the drinking tube electrode and the stainless steel grid floor. Consumption of the milk solution was measured over a 10 minutes period by electronically recording the total amount of contact with the milk solution during the test session. The degree of appetite suppression produced by a given test substance was determined by statistical comparison of the duration of milk consumption by control (vehicle treated) mice with that of mice treated with a test substance. The degree of appetite suppression in a treated group of mice was expressed as percent reduction of consumption relative to the mean of the control group's response.

B1: Ala-Leu-Asp-Ile-Tyr-Ser-Ala-Val-Asp-Asp-Ala-Ser-His-Glu-Lys-Glu-Leu-Ile- Glu-Ala-Leu-Gln-Glu-Val-Leu-Lys-Lys-Leu-Lys-Ser-Lys-Arg-Ile-Pro-Ile-Tyr- … (protein)
chain: ALDIYSAVDDASHEKELIEALQEVLKKLKSKRIPIYEKKYGQVPMCDAGEQCAVRKGARIGKLCDCPRGTSCNSFLLKCL
notes: recombinant rat CART fragment 10-89 from FXa digest of thioredoxin-CART fusion (E. coli)
**Q.** B1 was tested. Which “% Feeding Suppression” value (ICV dose 1 microgram) did it give?
**A.** Its value is 41%.

**Q.** What about the “% Feeding Suppression” value (ICV dose 2 micrograms) of the same molecule?
**A.** Its value is 70%.

**Q.** What about the “% Feeding Suppression” value (ICV dose 5 micrograms) of the same molecule?
**A.** The value was 71%.

**Q.** What about the “% Feeding Suppression” value (ICV dose 10 micrograms) of the same molecule?
**A.** Its value is 59%.

**Q.** And the “% Feeding Suppression” value (ICV dose 20 micrograms)?
**A.** The value was 78%.

**Q.** What about the “suppression of milk consumption (statistical significance, in words)” value (intra-cerebroventricular injection in phosphate buffered saline, over the dose range tested for the substance) of the same molecule?
**A.** The value was “statistically significant suppression of milk consumption”.
